The supplement of paper PMC11246515
± gives the standard deviation of the averaged measurements.

Assay: total protein half-life in vivo (active degradation + dilution); higher = more stable protein
[1] = E. coli NCM3722 delta-clpP delta-lon delta-hslV, growth: N-lim chemostat, doubling time 6 h
[2] = E. coli NCM3722 delta-clpP, growth: N-lim chemostat, doubling time 6 h
[3] = E. coli NCM3722 delta-hslV, growth: N-lim chemostat, doubling time 6 h
[4] = E. coli NCM3722 delta-lon, growth: N-lim chemostat, doubling time 6 h
[5] = E. coli NCM3722 delta-smpB, growth: N-lim chemostat, doubling time 6 h
[6] = wild type E. coli NCM3722, growth: C-lim chemostat, doubling time 3 h
[7] = wild type E. coli NCM3722, growth: C-lim chemostat, doubling time 6 h
[8] = wild type E. coli NCM3722, growth: C-lim chemostat, doubling time 12 h
[9] = wild type E. coli NCM3722, growth: N-lim chemostat, doubling time 6 h
[10] = wild type E. coli NCM3722, growth: N-lim chemostat, doubling time 12 h
[11] = wild type E. coli NCM3722, growth: P-lim chemostat, doubling time 6 h
[12] = wild type E. coli NCM3722, growth: P-lim chemostat, doubling time 12 h

Sequence	total protein half-life in vivo [1]	total protein half-life in vivo [2]	total protein half-life in vivo [3]	total protein half-life in vivo [4]	total protein half-life in vivo [5]	total protein half-life in vivo [6]	total protein half-life in vivo [7]	total protein half-life in vivo [8]	total protein half-life in vivo [9]	total protein half-life in vivo [10]	total protein half-life in vivo [11]	total protein half-life in vivo [12]
MSKAGKITAAISGAFLLLIVVAIILIATFDWNRLKPTINQKVSAELNRPFAIRGDLGVVWERQKQETGWRSWVPWPHVHAEDIILGNPPDIPEVTMVHLPRVEATLAPLALLTKTVWLPWIKLEKPDARLIRLSEKNNNWTFNLANDDNKDANAKPSAWSFRLDNILFDQGRIAIDDKVSKADLEIFVDPLGKPLPFSEVTGSKGKADKEKVGDYVFGLKAQGRYNGEPLTGTGKIGGMLALRGEGTPFPVQADFRSGNTRVAFDGVVNDPMKMGGVDLRLKFSGDSLGDLYELTGVLLPDTPPFETDGRLVAKIDTEKSSVFDYRGFNGRIGDSDIHGSLVYTTGKPRPKLEGDVESRQLRLADLGPLIGVDSGKGAEKSKRSEQKKGEKSVQPAGKVLPYDRFETDKWDVMDADVRFKGRRIEHGSSLPISDLSTHIILKNADLRLQPLKFGMAGGSIAANIHLEGDKKPMQGRADIQARRLKLKELMPDVELMQKTLGEMNGDAELRGSGNSVAALLGNSNGNLKLLMNDGLVSRNLMEIVGLNVGNYIVGAIFGDDEVRVNCAAANLNIANGVARPQIFAFDTENALINVTGTASFASEQLDLTIDPESKGIRIITLRSPLYVRGTFKNPQAGVKAGPLIARGAVAAALATLVTPAAALLALISPSEGEANQCRTILSQMKK	6.24 ± 0.57 h	5.9 ± 0.17 h	6.13 ± 0.039 h	6.42 ± 0.4 h	5.438 ± 0.026 h	3.09 ± 0.22 h	5.72 ± 0.19 h	10.9 ± 1.2 h	5.57 ± 0.16 h	10.9 ± 0.42 h	5.49 ± 0.3 h	9.41 ± 0.73 h
MLKFILRRCLEAIPTLFILITISFFMMRLAPGSPFTGERTLPPEVMANIEAKYHLNDPIMTQYFSYLKQLAHGDFGPSFKYKDYSVNDLVASSFPVSAKLGAAAFFLAVILGVSAGVIAALKQNTKWDYTVMGLAMTGVVIPSFVVAPLLVMIFAIILHWLPGGGWNGGALKFMILPMVALSLAYIASIARITRGSMIEVLHSNFIRTARAKGLPMRRIILRHALKPALLPVLSYMGPAFVGIITGSMVIETIYGLPGIGQLFVNGALNRDYSLVLSLTILVGALTILFNAIVDVLYAVIDPKIRY [P0AFH2]	6.19 ± 0.36 h	6.06 ± 0.43 h	6.31 ± 0.27 h	4.86 ± 1.2 h	5.88 ± 0.32 h	2.81 ± 0.28 h	5.75 ± 0.39 h	13.4 ± 3.6 h	4.92 ± 1.4 h	13.5 h	5.69 ± 1.4 h	9.81 ± 1.4 h
MFEINPVNNRIQDLTERSDVLRGYLDYDAKKERLEEVNAELEQPDVWNEPERAQALGKERSSLEAVVDTLDQMKQGLEDVSGLLELAVEADDEETFNEAVAELDALEEKLAQLEFRRMFSGEYDSADCYLDIQAGSGGTEAQDWASMLERMYLRWAESRGFKTEIIEESEGEVAGIKSVTIKISGDYAYGWLRTETGVHRLVRKSPFDSGGRRHTSFSSAFVYPEVDDDIDIEINPADLRIDVYRTSGAGGQHVNRTESAVRITHIPTGIVTQCQNDRSQHKNKDQAMKQMKAKLYELEMQKKNAEKQAMEDNKSDIGWGSQIRSYVLDDSRIKDLRTGVETRNTQAVLDGSLDQFIEASLKAGL	5.162 ± 0.05 h	4.669 ± 0.007 h	4.335 ± 0.033 h	5.14 ± 0.28 h	4.282 ± 0.0079 h	2.79 ± 0.044 h	4.99 ± 0.27 h	8.37 ± 0.37 h	4.37 ± 0.28 h	6.87 ± 0.013 h	4.6 ± 0.33 h	8.54 ± 0.3 h
MEKKHIYLFCSAGMSTSLLVSKMRAQAEKYEVPVIIEAFPETLAGEKGQNADVVLLGPQIAYMLPEIQRLLPNKPVEVIDSLLYGKVDGLGVLKAAVAAIKKAAAN	4.43 ± 0.066 h	3.28 ± 0.13 h	2.92 ± 0.14 h	4.05 ± 0.47 h	3.16 ± 0.091 h	2.72 ± 0.065 h	3.64 ± 0.58 h	6 ± 0.41 h	2.82 ± 0.2 h	4.37 ± 1 h	4.042 ± 0.031 h	7.9 ± 0.83 h
MNSLTTHYRRSQLIALPVPGGKAKVEYCYAVNVPGDREIVTHSFAEWAVGDFNRQKETVLCDKLTAGSKITTECPSESFVGSRKHNGLSTSAKVMSMNASARSNSFVVNSGK	1.84 h											
MHVLNILWVVFGIGLMLVLNLKFKINSMVALLVAALSVGMLAGMDLMSLLHTMKAGFGNTLGELAIIVVFGAVIGKLMVDSGAAHQIAHTLLARLGLRYVQLSVIIIGLIFGLAMFYEVAFIMLAPLVIVIAAEAKIPFLKLAIPAVAAATTAHSLFPPQPGPVALVNAYGADMGMVYIYGVLVTIPSVICAGLILPKFLGNLERPTPSFLKADQPVDMNNLPSFGVSILVPLIPAIIMISTTIANIWLVKDTPAWEVVNFIGSSPIAMFIAMVVAFVLFGTARGHDMQWVMNAFESAVKSIAMVILIIGAGGVLKQTIIDTGIGDTIGMLMSHGNISPYIMAWLITVLIRLATGQGVVSAMTAAGIISAAILDPATGQLVGVNPALLVLATAAGSNTLTHINDASFWLFKGYFDLSVKDTLKTWGLLELVNSVVGLIIVLIISMVA [P0AC94]						2.92 ± 1.2 h	6.04 ± 0.1 h	13.5 h				
MNKVAQYYRELVASLSERLRNGERDIDALVEQARERVIKTGELTRTEVDELTRAVRRDLEEFAMSYEESLKEESDSVFMRVIKESLWQELADITDKTQLEWREVFQDLNHHGVYHSGEVVGLGNLVCEKCHFHLPIYTPEVLTLCPKCGHDQFQRRPFEP [P0AAT9]	5.96 ± 0.99 h	4.62 ± 0.043 h	4.74 ± 0.38 h	5.364 ± 0.034 h	4.05 ± 0.48 h	2.81 ± 0.34 h	4.632 ± 0.011 h	8.29 ± 0.47 h	3.87 ± 0.6 h	10.7 ± 3.1 h	5.95 ± 1.4 h	10.9 ± 0.48 h
MSQVLITGATGLVGGHLLRMLINEPKVNAIAAPTRRPLGDMPGVFNPHDPQLSDALAQVTDPIDIVFCCLGTTRREAGSKEAFIHADYTLVVDTALTGRRLGAQHMLVVSAMGANAHSPFFYNRVKGEMEEALIAQNWPKLTIARPSMLLGDRSKQRMNETLFAPLFRLLPGNWKSIDARDVARVMLAESMRPEHEGVTILSSSELRKRAE	6.13 ± 0.065 h	5.36 ± 0.4 h	5.98 ± 0.48 h	6.26 ± 0.69 h		3.24 ± 0.14 h			5.69 ± 1.1 h			
